This note sets out measurements from patent US20050032064, “Method and device for identifying substances capable of modulating adipocyte differentiation” (published 2005).

One data set deals with PPAR GAMMA (Mus musculus, UniProt P37238 P37238:1-505). Put plainly: EMSA; PPAR gamma alone. The note with it: tags: pSG5-mPPAR-gamma, rabbit reticulocyte lysate; label: end-labeled. As to the method:
(§1) The electrophoretic gel shift studies were carried out by using the indicated end-labeled oligonucleotides, in the presence of the murine PPAR GAMMA receptor, murine RXR ALPHA receptor, human REV-ERB ALPHA receptor produced by reticulocyte lysate, or non-programmed lysates (lysate). Binding competition experiments were performed by adding a 0, 10 or 100-fold excess of unlabeled Rev-DR2 oligonucleotide.
(§2) The pSG5-mPPAR-gamma, pSG5-mRXR-alpha and pSG5-hRev-erb alpha plasmids were transcribed in vitro with T7 polymerase and translated with the rabbit reticulocyte lysate system (Promega, Madison, Wis., USA). Gel shift experiments with REV-ERB ALPHA, PPAR GAMMA and/or RXR ALPHA proteins were carried out as previously described (Gervois, P. et al., Molecular Endocrinology 1999, 13(3): 400-409; Vu-Dac, N. et al., J. Biol. Chem. 1994, 269(49): 31012-31018). For the competition experiments, increasing quantities of the indicated unlabeled probe were added immediately before adding the labeled oligonucleotide. The complexes were resolved in 5% polyacrylamide gels using […] buffer (90 mM borate, 2.5 mM EDTA, pH 8.3) at room temperature. Gels were dried and exposed overnight at −70° C. on Rayon-X film (XOMAT-AR, Eastman Kodak, Rochester, N.Y., USA).
(§3) Lastly, binding of the PPAR GAMMA receptor to the Rev-DR2 site was studied. […]
Background: Mobility shift assays separate free from complexed probe on a gel.

Another data set addresses T1, REV-ERB ALPHA (NR1D1) (Homo sapiens, UniProt P20393 SEQ:1-614).
T1 sequence: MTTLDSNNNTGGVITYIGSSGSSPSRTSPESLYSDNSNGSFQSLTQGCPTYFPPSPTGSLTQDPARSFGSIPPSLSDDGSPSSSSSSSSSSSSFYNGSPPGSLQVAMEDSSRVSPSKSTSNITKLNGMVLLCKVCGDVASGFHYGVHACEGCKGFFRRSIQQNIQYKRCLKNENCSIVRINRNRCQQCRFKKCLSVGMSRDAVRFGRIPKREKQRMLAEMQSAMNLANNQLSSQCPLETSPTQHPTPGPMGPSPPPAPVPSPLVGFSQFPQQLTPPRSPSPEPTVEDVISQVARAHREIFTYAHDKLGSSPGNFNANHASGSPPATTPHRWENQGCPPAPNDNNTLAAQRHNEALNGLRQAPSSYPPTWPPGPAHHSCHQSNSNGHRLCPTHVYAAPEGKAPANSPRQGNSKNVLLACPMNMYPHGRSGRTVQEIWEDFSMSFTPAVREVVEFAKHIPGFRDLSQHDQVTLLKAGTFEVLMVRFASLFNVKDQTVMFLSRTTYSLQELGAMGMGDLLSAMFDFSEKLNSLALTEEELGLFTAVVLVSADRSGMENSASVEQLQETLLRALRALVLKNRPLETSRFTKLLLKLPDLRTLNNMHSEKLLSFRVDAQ
Kind of data set: EMSA; binds as monomer and homodimer. The settings on record: tags: expressed from pSG5-hRev-erb alpha, rabbit reticulocyte lysate; label: end-labeled. The protocol: as §1, §2, §3

The target of data set [1] is PPAR GAMMA / RXR ALPHA heterodimer (Mus musculus, UniProt P37238;P28700 P37238:1-505,P28700:1-467). Kind of data set: EMSA; competed by excess (10 or 100-fold tested) unlabeled Rev-DR2. The note with it: tags: pSG5-mPPAR-gamma and pSG5-mRXR-alpha, rabbit reticulocyte lysate; label: end-labeled. The protocol:
Binding competition experiments were performed by adding a 0, 10 or 100-fold excess of unlabeled Rev-DR2 oligonucleotide.
as §2
Lastly, binding of the PPAR GAMMA receptor to the Rev-DR2 site was studied. A test to measure electrophoretic mobility (gel shift or electrophoretic mobility shift assay) was carried out using PPAR GAMMA and RXR ALPHA proteins synthesized in vitro. […]

A further data set deals with T2, RXR ALPHA (Mus musculus, UniProt P28700 P28700:1-467).
T2 sequence: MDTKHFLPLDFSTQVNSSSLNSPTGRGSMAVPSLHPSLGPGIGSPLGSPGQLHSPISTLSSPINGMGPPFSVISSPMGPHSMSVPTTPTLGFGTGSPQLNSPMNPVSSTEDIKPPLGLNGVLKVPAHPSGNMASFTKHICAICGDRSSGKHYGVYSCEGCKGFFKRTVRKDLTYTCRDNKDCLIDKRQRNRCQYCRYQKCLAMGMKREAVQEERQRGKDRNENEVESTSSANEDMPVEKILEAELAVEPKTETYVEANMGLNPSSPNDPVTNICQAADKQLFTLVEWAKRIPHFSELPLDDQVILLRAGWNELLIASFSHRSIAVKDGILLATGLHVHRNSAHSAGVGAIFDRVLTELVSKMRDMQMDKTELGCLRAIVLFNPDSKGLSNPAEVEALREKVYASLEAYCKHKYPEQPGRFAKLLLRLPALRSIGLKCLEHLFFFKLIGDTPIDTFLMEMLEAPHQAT
Kind of data set: EMSA; RXR alpha alone. The note with it: tags: pSG5-mRXR-alpha, rabbit reticulocyte lysate; label: end-labeled. The protocol:
as §1, §2, §3

B1: Rev-DR2 (dsDNA)
DNA 1: AAAAGTGTGTCACTGGGGCA
DNA 2: TGCCCCAGTGACACACTTTT
For B1, the binding result is “no binding” with PPAR GAMMA, “binds” with REV-ERB ALPHA (NR1D1), “binds” in data set [1] and “no binding” in the data set with RXR ALPHA.
